From patent US20110052591A1

Target: TSH receptor on mouse alveolar macrophage AM cells (AMJ2-C8) (mouse) (UniProt P47750)
Assay: cell-based or functional assay

Sequence of UniProt P47750 (P47750 22-764): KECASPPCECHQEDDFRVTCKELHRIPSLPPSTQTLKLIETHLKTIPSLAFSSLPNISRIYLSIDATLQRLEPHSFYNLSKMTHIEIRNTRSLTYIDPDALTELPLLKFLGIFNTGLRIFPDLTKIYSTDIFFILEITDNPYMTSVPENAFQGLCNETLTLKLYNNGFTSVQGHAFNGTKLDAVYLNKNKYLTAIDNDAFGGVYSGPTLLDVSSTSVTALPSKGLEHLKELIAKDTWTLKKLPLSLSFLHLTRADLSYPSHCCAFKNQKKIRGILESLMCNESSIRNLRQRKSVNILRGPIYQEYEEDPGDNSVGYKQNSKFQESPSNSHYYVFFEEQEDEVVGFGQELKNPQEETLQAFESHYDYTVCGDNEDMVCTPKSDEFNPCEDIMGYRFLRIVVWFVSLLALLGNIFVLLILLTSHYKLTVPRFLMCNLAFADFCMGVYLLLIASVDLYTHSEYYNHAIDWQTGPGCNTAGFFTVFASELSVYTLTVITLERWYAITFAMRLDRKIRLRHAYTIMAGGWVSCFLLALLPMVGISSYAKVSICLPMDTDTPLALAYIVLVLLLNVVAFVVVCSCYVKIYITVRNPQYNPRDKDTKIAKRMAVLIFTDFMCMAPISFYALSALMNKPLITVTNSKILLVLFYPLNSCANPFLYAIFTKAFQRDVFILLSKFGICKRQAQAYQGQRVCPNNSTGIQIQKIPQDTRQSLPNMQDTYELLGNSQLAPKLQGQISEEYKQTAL

Substance | cAMP response of AM cells; concentration of peak activity [nM]
recombinant mouse native TSHβ (from UniProt P12656 21-138) (ligand) | 0.1
recombinant mouse novel TSHβ splice variant (from UniProt P12656 55-138) (ligand) | 1000
